Experimental data published in publication PMC8698469, “A Combined Spectroscopic and In Silico Approach to Evaluate the Interaction of Human Frataxin with Mitochondrial Superoxide Dismutase” (Biomedicines, 2021).

T1: human mitochondrial superoxide dismutase (SOD2), His-tag recombinant protein (human, UniProt P04179 25-222)
T1 construct: Trp residues are printed as W78, W123, W125, W161, W181, W186; also called Mn-SOD; (SOD2)4; source: bought: Technical Novusbio (His-tag recombinant protein)
T1 sequence: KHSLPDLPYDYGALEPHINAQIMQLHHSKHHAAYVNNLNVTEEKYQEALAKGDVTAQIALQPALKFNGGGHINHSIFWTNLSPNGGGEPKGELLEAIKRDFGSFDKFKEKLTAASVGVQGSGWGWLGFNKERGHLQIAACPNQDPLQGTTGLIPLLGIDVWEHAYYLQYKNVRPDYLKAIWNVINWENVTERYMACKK


How the values were obtained:
[1] = target: T1, human mitochondrial superoxide …; assay: tryptophan fluorescence quenching (mixture against the sum of the single spectra); both in solution; FXN 1.4 uM, SOD2 1.9 uM (FXN:(SOD2)4 1:0.34), 288 K, mix of 20 mM TRIS-HCl pH 8 and 25 mM HEPES pH 7.0, 50 mM KCl, under nitrogen; conditions: both partners purified
[2] = target: T1, human mitochondrial superoxide …; assay: SDSL-EPR (EPR spectra of spin-labelled protein, fitted rotational correlation time); both in solution; 10 uM spin-labelled FXN mutant without or with 40 uM SOD2 (FXN:(SOD2)4 1:1; also 1:0.5), room temperature, 18 uL SOD buffer (20 mM Tris HCl pH 8, 20% v/v glycerol) or SOD2 stock with 2 uL FXN stock, under nitrogen flow; conditions: both partners purified

Binder	decrease in fluorescence quenching relative to the sum of the individual spectra [1]	ΔτC (τC^+SOD − τC^−SOD) [2]
human wild-type mature frataxin, FXN(90-210) (domain or fragment, UniProt Q16595 90-210, looked up, human frataxin, residues 90-210 of the 210 amino acid precursor, from plasmid pET-9b/FXN(90-210); also called WT FXN; source: E. coli BL21 (DE3), purified (DEAE Sepharose ion exchange, SEC on Superdex 200)) LDETTYERLAEETLDSLAEFFEDLADKPYTFEDYDVSFGSGVLTVKLGGDLGTYVINKQTPNKQIWLSSPSSGPKRYDWTGKNWVYSHDGVSLHELLAAELTKALKTKLDLSSLAYSGKDA	17%	
human FXN(90-210) A114C, spin-labelled with M-TETPO (domain or fragment, UniProt Q16595 90-210, looked up, M-TETPO nitroxide spin label on cysteine 114, human frataxin, residues 90-210, native residue mutated to cysteine for spin labelling; source: E. coli BL21 (DE3), purified (DEAE Sepharose ion exchange, SEC), labelled with M-TETPO) LDETTYERLAEETLDSLAEFFEDLCDKPYTFEDYDVSFGSGVLTVKLGGDLGTYVINKQTPNKQIWLSSPSSGPKRYDWTGKNWVYSHDGVSLHELLAAELTKALKTKLDLSSLAYSGKDA		0.44 ns

Results, then the binder that gave them:

decrease in fluorescence quenching relative to the sum of the individual spectra [1]	ΔτC (τC^+SOD − τC^−SOD) [2]	Binder
	0.41 ns	human FXN(90-210) A193C, spin-labelled with M-TETPO (domain or fragment, UniProt Q16595 90-210, looked up, M-TETPO nitroxide spin label on cysteine 193, human frataxin, residues 90-210, native residue mutated to cysteine for spin labelling; source: E. coli BL21 (DE3), purified (DEAE Sepharose ion exchange, SEC), labelled with M-TETPO) LDETTYERLAEETLDSLAEFFEDLADKPYTFEDYDVSFGSGVLTVKLGGDLGTYVINKQTPNKQIWLSSPSSGPKRYDWTGKNWVYSHDGVSLHELLAAELTKCLKTKLDLSSLAYSGKDA
	0.56 ns	human FXN(90-210) H183C, spin-labelled with M-TETPO (domain or fragment, UniProt Q16595 90-210, looked up, M-TETPO nitroxide spin label on cysteine 183, human frataxin, residues 90-210, native residue mutated to cysteine for spin labelling; source: E. coli BL21 (DE3), purified (DEAE Sepharose ion exchange, SEC), labelled with M-TETPO) LDETTYERLAEETLDSLAEFFEDLADKPYTFEDYDVSFGSGVLTVKLGGDLGTYVINKQTPNKQIWLSSPSSGPKRYDWTGKNWVYSHDGVSLCELLAAELTKALKTKLDLSSLAYSGKDA
	0.4 ns	human FXN(90-210) T133C, spin-labelled with M-TETPO (domain or fragment, UniProt Q16595 90-210, looked up, M-TETPO nitroxide spin label on cysteine 133, human frataxin, residues 90-210, native residue mutated to cysteine for spin labelling; source: E. coli BL21 (DE3), purified (DEAE Sepharose ion exchange, SEC), labelled with M-TETPO) LDETTYERLAEETLDSLAEFFEDLADKPYTFEDYDVSFGSGVLCVKLGGDLGTYVINKQTPNKQIWLSSPSSGPKRYDWTGKNWVYSHDGVSLHELLAAELTKALKTKLDLSSLAYSGKDA
